Here are results for one substance from article doi:10.1101/2024.11.26.625467.

The stoichiometry N is a count of units in the complex or per binding partner.

The target in the assay is CA09 N1 sNAp (stabilized NA protein, neuraminidase head of H1N1 A/California/07/2009) (influenza A virus H1N1 A/California/07/2009). As to the kind of experiment: cryo-EM structure.

As to “CA09 N1 sNAp (stabilized NA protein, neuraminidase head of H1N1 A/California/07/2009) (domain or fragment)”, the stoichiometry N is 4.
